In series [1] the target is T1, MBP-FUS (UniProt P35637 1-526). The series is described as follows: gel filtration co-elution.
The target of the next series is T2, Karyopherin-β2 (Kapβ2) (human, UniProt Q92973-2 1-890).
T2 sequence: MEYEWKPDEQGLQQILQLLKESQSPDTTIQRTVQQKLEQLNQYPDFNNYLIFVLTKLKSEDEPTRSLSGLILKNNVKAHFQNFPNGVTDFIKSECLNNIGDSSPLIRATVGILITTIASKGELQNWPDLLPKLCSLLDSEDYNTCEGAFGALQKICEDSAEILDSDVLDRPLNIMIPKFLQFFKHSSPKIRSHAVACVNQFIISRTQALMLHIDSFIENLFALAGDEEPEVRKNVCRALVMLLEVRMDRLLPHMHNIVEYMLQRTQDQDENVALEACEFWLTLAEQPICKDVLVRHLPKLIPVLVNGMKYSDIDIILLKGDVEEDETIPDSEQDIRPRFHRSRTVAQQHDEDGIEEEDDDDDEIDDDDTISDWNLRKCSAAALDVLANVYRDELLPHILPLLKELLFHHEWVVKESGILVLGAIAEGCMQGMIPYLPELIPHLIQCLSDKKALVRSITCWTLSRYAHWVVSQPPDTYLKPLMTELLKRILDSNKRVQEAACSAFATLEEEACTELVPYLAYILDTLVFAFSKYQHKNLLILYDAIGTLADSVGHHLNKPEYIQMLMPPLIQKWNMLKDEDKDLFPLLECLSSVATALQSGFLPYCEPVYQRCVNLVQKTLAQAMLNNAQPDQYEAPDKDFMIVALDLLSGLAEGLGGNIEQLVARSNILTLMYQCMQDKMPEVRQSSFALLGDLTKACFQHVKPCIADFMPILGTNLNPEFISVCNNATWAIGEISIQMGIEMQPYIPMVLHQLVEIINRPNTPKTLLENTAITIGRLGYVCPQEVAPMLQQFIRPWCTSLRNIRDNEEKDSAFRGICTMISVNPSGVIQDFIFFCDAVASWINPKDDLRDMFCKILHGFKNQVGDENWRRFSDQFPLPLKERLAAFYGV
The series is described as follows: ITC. For orientation: Isothermal titration calorimetry measures the heat released or taken up as one component is titrated into another.

For the next series, the target named is GST-CRM1 (human, UniProt O14980 1-1071). The series is described as follows: pull-down.
Another series concerns the target T3, FUS(456–526) (UniProt P35637 456-526).
T3 sequence (looked up): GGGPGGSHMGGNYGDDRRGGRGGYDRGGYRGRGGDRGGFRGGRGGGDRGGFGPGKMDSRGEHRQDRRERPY
The series is described as follows: crystal structure.

The target of series [2] is T4, FUS (full-length), MBP removed with Tev protease (UniProt P35637 1-526).
T4 sequence (looked up): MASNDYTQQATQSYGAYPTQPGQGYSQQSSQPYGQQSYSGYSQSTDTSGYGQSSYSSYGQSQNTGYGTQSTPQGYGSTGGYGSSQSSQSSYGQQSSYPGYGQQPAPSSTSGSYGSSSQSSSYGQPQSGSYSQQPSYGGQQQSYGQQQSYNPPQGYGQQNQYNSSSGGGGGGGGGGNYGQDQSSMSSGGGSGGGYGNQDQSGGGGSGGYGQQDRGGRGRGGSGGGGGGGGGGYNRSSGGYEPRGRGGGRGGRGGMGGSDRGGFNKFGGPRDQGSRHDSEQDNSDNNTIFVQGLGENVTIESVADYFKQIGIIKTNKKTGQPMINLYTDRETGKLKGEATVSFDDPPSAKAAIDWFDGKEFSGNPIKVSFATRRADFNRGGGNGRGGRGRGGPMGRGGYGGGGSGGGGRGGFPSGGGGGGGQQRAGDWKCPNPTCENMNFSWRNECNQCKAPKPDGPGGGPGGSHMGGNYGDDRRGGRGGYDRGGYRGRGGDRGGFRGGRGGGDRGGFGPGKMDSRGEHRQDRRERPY
The series is described as follows: crystal structure.

The target of the next series is T5, FUS(371–526) (UniProt P35637 371-526).
T5 sequence (looked up): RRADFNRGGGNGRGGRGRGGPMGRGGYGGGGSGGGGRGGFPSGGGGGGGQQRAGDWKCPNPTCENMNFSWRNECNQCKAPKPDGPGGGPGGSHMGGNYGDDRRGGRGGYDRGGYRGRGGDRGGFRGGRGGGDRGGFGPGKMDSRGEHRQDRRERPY
The series is described as follows: crystal structure.

Series [3] concerns the target T1, MBP-FUS. The series is described as follows: gel filtration co-elution. The source holds these as a separate data set.

Where two headings read alike, the source gives them in different places.

Sequence of GST-CRM1 (O14980 whole entry): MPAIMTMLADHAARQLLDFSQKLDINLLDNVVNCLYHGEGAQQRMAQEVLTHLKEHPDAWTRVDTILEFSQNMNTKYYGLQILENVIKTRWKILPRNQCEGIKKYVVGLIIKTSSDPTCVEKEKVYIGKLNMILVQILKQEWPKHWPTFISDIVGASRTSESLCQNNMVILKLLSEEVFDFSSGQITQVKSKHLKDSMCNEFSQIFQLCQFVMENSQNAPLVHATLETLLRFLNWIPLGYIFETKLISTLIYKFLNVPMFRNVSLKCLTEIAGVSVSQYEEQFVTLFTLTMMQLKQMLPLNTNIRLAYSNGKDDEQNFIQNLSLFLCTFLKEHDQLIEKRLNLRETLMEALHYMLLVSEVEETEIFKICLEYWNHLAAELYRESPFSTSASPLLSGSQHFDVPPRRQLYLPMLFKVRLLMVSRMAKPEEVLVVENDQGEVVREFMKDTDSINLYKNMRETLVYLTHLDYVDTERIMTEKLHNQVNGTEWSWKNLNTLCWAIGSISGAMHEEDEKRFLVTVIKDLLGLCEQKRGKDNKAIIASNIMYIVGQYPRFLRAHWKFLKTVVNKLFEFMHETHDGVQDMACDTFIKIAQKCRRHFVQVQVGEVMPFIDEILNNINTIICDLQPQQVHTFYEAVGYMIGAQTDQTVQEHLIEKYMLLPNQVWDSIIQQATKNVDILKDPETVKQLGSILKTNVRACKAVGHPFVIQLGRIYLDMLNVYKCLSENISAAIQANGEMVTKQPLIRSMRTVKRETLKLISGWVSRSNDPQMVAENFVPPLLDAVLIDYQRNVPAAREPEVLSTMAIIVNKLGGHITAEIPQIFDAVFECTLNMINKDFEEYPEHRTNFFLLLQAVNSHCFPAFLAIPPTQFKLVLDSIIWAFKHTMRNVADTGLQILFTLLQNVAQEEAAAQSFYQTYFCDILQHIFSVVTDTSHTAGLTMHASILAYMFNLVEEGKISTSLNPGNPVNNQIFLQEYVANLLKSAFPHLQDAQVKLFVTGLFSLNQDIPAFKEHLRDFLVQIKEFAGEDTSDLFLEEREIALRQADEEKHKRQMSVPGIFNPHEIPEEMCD

B1: prD (DNMT) RNA (ssRNA)
RNA: AUUGAGGAGCAGCAGAGAAGUUGGAGUGAAGGCAGAGAGGGGUUAAGG
Take B1: the binding result with MBP-FUS [1] is listed as “binds”.

B2: MBP-FUS(371–526) (domain or fragment, UniProt P35637 371-526, looked up)
chain: RRADFNRGGGNGRGGRGRGGPMGRGGYGGGGSGGGGRGGFPSGGGGGGGQQRAGDWKCPNPTCENMNFSWRNECNQCKAPKPDGPGGGPGGSHMGGNYGDDRRGGRGGYDRGGYRGRGGDRGGFRGGRGGGDRGGFGPGKMDSRGEHRQDRRERPY
Turning to B2, the binding result in the series with Karyopherin-β2 (Kapβ2) is “binds”.

B3: MBP-FUS(NES) chimera (PY-NLS replaced with the NES from the NS2 protein of MVM virus) (other)
chain: MASNDYTQQATQSYGAYPTQPGQGYSQQSSQPYGQQSYSGYSQSTDTSGYGQSSYSSYGQSQNTGYGTQSTPQGYGSTGGYGSSQSSQSSYGQQSSYPGYGQQPAPSSTSGSYGSSSQSSSYGQPQSGSYSQQPSYGGQQQSYGQQQSYNPPQGYGQQNQYNSSSGGGGGGGGGGNYGQDQSSMSSGGGSGGGYGNQDQSGGGGSGGYGQQDRGGRGRGGSGGGGGGGGGGYNRSSGGYEPRGRGGGRGGRGGMGGSDRGGFNKFGGPRDQGSRHDSEQDNSDNNTIFVQGLGENVTIESVADYFKQIGIIKTNKKTGQPMINLYTDRETGKLKGEATVSFDDPPSAKAAIDWFDGKEFSGNPIKVSFATRRADFNRGGGNGRGGRGRGGPMGRGGYGGGGSGGGGRGGFPSGGGGGGGQQRAGDWKCPNPTCENMNFSWRNECNQCKAPKPDGPGGGPGGSHMGGNYGDDRRGGRGGYDRGGYRGRGGDRGGFRGGRGGYSTVDEMTKKFGTLTIH
With B3, in the series with GST-CRM1, the binding result was “binds”.

B4: MBP-FUS(453–526) (domain or fragment, UniProt P35637 453-526, looked up)
chain: DGPGGGPGGSHMGGNYGDDRRGGRGGYDRGGYRGRGGDRGGFRGGRGGGDRGGFGPGKMDSRGEHRQDRRERPY
For B4, the binding result with Karyopherin-β2 (Kapβ2) is “binds”.

B5: Kapβ2Δloop (residues 337–367 replaced with a GGSGGSG linker) (natural protein, human)
chain: MEYEWKPDEQGLQQILQLLKESQSPDTTIQRTVQQKLEQLNQYPDFNNYLIFVLTKLKSEDEPTRSLSGLILKNNVKAHFQNFPNGVTDFIKSECLNNIGDSSPLIRATVGILITTIASKGELQNWPDLLPKLCSLLDSEDYNTCEGAFGALQKICEDSAEILDSDVLDRPLNIMIPKFLQFFKHSSPKIRSHAVACVNQFIISRTQALMLHIDSFIENLFALAGDEEPEVRKNVCRALVMLLEVRMDRLLPHMHNIVEYMLQRTQDQDENVALEACEFWLTLAEQPICKDVLVRHLPKLIPVLVNGMKYSDIDIILLKGDVEEDETIPDSEQDIRGGSGGSGDTISDWNLRKCSAAALDVLANVYRDELLPHILPLLKELLFHHEWVVKESGILVLGAIAEGCMQGMIPYLPELIPHLIQCLSDKKALVRSITCWTLSRYAHWVVSQPPDTYLKPLMTELLKRILDSNKRVQEAACSAFATLEEEACTELVPYLAYILDTLVFAFSKYQHKNLLILYDAIGTLADSVGHHLNKPEYIQMLMPPLIQKWNMLKDEDKDLFPLLECLSSVATALQSGFLPYCEPVYQRCVNLVQKTLAQAMLNNAQPDQYEAPDKDFMIVALDLLSGLAEGLGGNIEQLVARSNILTLMYQCMQDKMPEVRQSSFALLGDLTKACFQHVKPCIADFMPILGTNLNPEFISVCNNATWAIGEISIQMGIEMQPYIPMVLHQLVEIINRPNTPKTLLENTAITIGRLGYVCPQEVAPMLQQFIRPWCTSLRNIRDNEEKDSAFRGICTMISVNPSGVIQDFIFFCDAVASWINPKDDLRDMFCKILHGFKNQVGDENWRRFSDQFPLPLKERLAAFYGV
For B5, the binding result (in the series with FUS(456–526); in series [2]; with FUS(371–526)) was “binds” each time.

B6: TERRA RNA (structured_RNA)
RNA: UUAGGGUUAGGGUUAGGGUUAGGG
In the case of B6, in the series with MBP-FUS [3], the binding result is reported as “binds”.

For the origin of these results see publication PMC6234985 (Cell, 2018).
